Values of other authors in PMC4078514, “A Bombesin-Shepherdin Radioconjugate Designed for Combined Extra- and Intracellular Targeting” (Pharmaceuticals, 2014).

Target: Hsp90 (Homo sapiens) (UniProt P07900)

Sequence of Shepherdin 79-83 (O15392 whole entry, looked up, tested part not stated): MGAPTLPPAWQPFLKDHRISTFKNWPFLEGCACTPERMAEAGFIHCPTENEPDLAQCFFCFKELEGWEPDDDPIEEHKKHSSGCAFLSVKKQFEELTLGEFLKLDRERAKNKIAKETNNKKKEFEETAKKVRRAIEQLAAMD

Kd: 80 nM
Substance: Shepherdin 79-83 (from UniProt O15392)
